Data reported in patent US7556938B1, “Nucleic acids encoding potassium channel interactors” (Millennium Pharmaceuticals, Inc., priority 1998, dated 2009).

Columns and labels:
rKv4.3 = experiment: Two-electrode voltage clamp of Kv4.3 currents in Xenopus oocytes co-injected with KChIP cRNA; type: cell-based, rat
Experimental: (§1) Frogs underwent no more than two surgeries and surgeries were performed by well established techniques. Frogs were anesthetized with ice. Total cRNA (1-10 ng) was injected into stage IV Xenopus oocytes that were harvested the previous day. The Xenopus oocytes were incubated in ND96 containing (in mM) 96 NaCl, 2 KCl, 1.8 CaCl2, 1 MgCl2, 5 HEPES, pH 7.6, plus (Gentamycin 50 μg/ml) at 18° C. Xenopus oocytes were studied 3-7 days after injection. The two-electrode voltage-clamp recordings were performed in ND96 solution using a TURBO TEC 03 Clamp Amplifier (ALA Scientific Instruments, Westbury, N.Y.). Both electrodes were filled with 3 M KCl and had electrode resistances ranging from 0.2-1 MOhm. The current signals were filtered at 1000 Hz before transferred on a PC (Gateway, Calif.) using the PULSE software (HEKA, Germany).
(§2) To investigate whether the modulatory effects of these KChIPs are specific for Kv4 channels, KChIP1 was coexpressed with Kv1.4 and Kv2.1 in Xenopus oocytes. Xenopus oocytes were injected with 1-3 ng/oocyte of cRNA which was prepared using standard in vitro transcription techniques (Sambrook et al. 1989. Molecular Cloning: a laboratory manual, Cold Spring Harbor Press). Currents in Xenopus oocytes were measured with a two-electrode voltage clamp. […] As a final control for the KChIP effects and to verify that the KChIPs' effects on Kv4 currents are independent of expression system, the above kinetic analyses were repeated after expressing Kv4.3 and KChIP mRNAs in Xenopus oocytes. The effects KChIP1 on for Kv4.3 in the Xenopus oocyte system were strikingly similar to those on Kv4.2 in CHO cells (Table 1).

hKv1.4 = hKv1.4 (Homo sapiens, UniProt P22459); experiment: Two-electrode voltage clamp of Kv1.4 currents in Xenopus oocytes coexpressing 1v; type: cell-based
Sequence of hKv1.4 (P22459 whole entry): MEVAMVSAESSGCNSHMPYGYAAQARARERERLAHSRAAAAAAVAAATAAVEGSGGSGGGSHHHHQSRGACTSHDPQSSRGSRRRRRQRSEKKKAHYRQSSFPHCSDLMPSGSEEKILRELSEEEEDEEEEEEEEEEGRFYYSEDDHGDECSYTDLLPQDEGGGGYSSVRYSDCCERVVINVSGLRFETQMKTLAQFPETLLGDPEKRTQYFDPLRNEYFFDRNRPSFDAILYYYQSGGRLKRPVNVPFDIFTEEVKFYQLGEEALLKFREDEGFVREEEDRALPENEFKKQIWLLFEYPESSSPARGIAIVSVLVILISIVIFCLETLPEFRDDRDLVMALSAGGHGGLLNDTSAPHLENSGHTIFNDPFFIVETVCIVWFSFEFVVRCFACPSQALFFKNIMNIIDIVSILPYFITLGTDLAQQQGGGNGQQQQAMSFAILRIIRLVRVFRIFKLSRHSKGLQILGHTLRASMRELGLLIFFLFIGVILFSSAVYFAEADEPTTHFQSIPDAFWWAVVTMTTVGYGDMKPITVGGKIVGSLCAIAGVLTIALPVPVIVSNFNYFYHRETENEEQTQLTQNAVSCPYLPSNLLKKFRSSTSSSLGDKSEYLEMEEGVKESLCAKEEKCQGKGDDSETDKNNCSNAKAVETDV
Experimental: as §1, §2

HKv2.1 = biological target: T1, HKv2.1 (Homo sapiens, UniProt Q14721); experiment: Two-electrode voltage clamp of Kv2.1 currents in Xenopus oocytes coexpressing 1v; type: cell-based
T1 sequence (Q14721 1-858): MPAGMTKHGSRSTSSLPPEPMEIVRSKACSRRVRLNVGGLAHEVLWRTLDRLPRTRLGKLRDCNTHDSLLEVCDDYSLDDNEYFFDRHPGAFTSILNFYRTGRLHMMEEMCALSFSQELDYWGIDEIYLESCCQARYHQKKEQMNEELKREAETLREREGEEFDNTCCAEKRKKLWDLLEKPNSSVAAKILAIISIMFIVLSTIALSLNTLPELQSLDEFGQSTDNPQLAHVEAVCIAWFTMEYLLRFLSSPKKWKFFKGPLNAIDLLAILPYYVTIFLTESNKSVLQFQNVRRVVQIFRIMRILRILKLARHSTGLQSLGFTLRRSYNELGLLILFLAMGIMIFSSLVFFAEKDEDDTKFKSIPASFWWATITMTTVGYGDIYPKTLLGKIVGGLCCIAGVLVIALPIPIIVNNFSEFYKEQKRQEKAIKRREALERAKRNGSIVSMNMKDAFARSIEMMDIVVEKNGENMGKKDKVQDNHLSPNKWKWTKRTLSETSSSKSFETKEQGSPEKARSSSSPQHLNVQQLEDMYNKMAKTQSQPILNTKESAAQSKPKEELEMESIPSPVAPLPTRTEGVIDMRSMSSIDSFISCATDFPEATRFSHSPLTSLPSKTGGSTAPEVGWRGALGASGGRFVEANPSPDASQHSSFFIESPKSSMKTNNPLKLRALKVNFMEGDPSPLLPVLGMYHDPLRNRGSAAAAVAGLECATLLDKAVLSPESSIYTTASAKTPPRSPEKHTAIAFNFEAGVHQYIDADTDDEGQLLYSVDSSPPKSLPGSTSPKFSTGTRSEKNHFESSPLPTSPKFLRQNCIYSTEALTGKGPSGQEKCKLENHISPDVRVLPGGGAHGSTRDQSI
Experimental: as §1, §2

rKv4.3N = biological target: T2, rKv4.3N (Rattus norvegicus, UniProt Q62897); experiment: Yeast two-hybrid binding and specificity test, Kv4.3 N-terminal bait
T2 construct: expressed in transfected cells; host or cells: yeast HF7c (bait), mated with Y187 (fish)
T2 sequence (Q62897 1-180): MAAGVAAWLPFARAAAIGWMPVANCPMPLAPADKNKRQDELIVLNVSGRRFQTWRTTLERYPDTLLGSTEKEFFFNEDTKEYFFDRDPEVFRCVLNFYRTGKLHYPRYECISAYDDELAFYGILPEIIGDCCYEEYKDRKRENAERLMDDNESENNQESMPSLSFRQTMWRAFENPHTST
Outline: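 Bait of rat Kv4.3 residues 1–180 in pGBT9, expressed in yeast HF7c, screened against a rat midbrain library. Positives scored by His and filter β-galactosidase reporters. Specificity tested by mating prey (in Y187) against a panel of related and unrelated baits and checking reporter activity.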

[1] = Kv4.3 co-expressed with the KChIP

Sequence of rKv4.3 (Q62897 1-487 limits assumed): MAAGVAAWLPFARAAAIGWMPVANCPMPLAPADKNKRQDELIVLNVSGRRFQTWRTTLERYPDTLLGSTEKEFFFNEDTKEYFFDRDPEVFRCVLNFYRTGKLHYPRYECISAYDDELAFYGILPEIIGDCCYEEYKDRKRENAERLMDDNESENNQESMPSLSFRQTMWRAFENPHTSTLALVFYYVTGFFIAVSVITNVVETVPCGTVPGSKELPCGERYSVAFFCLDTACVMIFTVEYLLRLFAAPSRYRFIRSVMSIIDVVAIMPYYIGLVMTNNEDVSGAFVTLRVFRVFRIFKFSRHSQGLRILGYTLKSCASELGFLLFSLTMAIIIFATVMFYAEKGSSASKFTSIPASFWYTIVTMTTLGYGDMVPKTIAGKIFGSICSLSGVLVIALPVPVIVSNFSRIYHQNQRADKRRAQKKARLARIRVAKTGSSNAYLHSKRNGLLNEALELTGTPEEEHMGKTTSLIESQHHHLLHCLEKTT

B1: KChIP1: Potassium channel interacting protein 1v, a Ca2+-binding protein that binds and modulates Kv4 channels (protein)
chain: MPARVLLAYPGTEMLTQGESEGLQTLGIVVVLCSSLKLLHYLGLIDLSDDKIEDDLEMTMVCHRPEGLEQLEAQTNFTKRELQVLYRGFKNECPSGVVNEETFKQIYAQFFPHGDASTYAHYLFNAFDTTQTGSVKFEDFVTALSILLRGTVHEKLRWTFNLYDINKDGYINKEEMMDIVKAIYDMMGKYTYPVLKEDTPRQHVDVFFQKMDKNKDGIVTLDEFLESCQEDDNIMRSLQLFQNVM
Inactivation time constant (ms ± SEM) (rKv4.3; [1]): 112 ± 3 ms
Peak amplitude (μA ± SEM) (rKv4.3; [1]): 59 ± 5 μA
Inactivation time constant (ms, at 50 mV) (rKv4.3; rKv4.3 + KChIP1, at 50 mV): 135.0 ± 15.1 ms
Peak Current (rKv4.3; rKv4.3 + KChIP1, at 50 mV, unit μA printed in cell): 18.1 μA* ± 3.8
fold increase of inactivation time constant of Kv4.3 (rKv4.3; versus Kv4.3 alone): ~2 fold
effect on Kv1.4 currents (hKv1.4): did not appear to have any effect
Activation V1/2 (mV) (hKv1.4; hKv1.4 + 1v): −20.9 mV
Steady-state Inactivation V1/2 (mV) (hKv1.4; hKv1.4 + 1v): −47.5 mV
Inactivation time constant (ms, at 50 mV) (hKv1.4; hKv1.4 + 1v, at 50 mV): 58.2 ± 6.6 ms
Peak Current (μA/cell at 50 MV) (hKv1.4; hKv1.4 + 1v, at 50 mV): 6.5 ± 0.64 μA/cell
effect on Kv2.1 currents (HKv2.1): did not appear to have any effect
Activation V1/2 (mV) (HKv2.1; HKv2.1 + 1v): 12.4 mV
Steady-state Inactivation V1/2 (mV) (HKv2.1; HKv2.1 + 1v): −23.9 mV
Peak Current (μA/cell at 50 MV) (HKv2.1; HKv2.1 + 1v, at 50 mV): 2.9 ± 0.37 μA/cell
Inactivation time constant (at 50 mV) (HKv2.1; HKv2.1 + 1v, at 50 mV, listed as head says ms, cell prints s): 1.7 s 0.078
binding to rKv4.3N in yeast two-hybrid assay (rKv4.3N): able to bind to the Kv4.3 polypeptide
